Assay results taken from publication PMC12817906, “SVCV phosphoprotein hijacks phase separation to immobilize the IRF3-TBK1 signaling axis and suppress interferon antiviral immunity” (Journal of Virology, 2025).
“And” between values parts separate entries of the source, which are not always exact repeats. Equal entries are not always repeated.

T1: mCherry-tagged zebrafish TBK1 protein (zebrafish, UniProt A0ACM8QAS8 1-727)
T1 construct: also called mCherry-TBK1; pFastBac1-mCherry-His-TBK1; source: Sf9 (baculovirus), purified (Ni-NTA)
T1 sequence: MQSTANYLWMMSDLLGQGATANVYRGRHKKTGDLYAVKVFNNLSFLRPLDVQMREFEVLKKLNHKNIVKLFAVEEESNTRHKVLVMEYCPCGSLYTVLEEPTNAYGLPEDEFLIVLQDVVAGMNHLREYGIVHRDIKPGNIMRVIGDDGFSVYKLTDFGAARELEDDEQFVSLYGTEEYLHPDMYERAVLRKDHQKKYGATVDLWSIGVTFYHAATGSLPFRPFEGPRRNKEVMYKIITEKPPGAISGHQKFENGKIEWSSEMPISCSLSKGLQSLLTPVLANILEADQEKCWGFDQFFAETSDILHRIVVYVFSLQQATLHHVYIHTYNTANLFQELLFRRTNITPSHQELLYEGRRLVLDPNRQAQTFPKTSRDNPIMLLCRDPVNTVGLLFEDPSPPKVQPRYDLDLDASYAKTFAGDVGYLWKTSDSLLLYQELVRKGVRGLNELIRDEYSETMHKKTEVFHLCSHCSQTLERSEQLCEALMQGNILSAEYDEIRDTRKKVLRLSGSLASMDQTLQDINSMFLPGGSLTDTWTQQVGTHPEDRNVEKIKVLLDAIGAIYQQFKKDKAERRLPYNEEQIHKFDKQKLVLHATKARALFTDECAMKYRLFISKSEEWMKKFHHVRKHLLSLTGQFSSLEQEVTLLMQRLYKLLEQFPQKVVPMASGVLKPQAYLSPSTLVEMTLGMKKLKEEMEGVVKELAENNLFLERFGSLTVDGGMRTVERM


Tests used:
[1] = target: purified recombinant zebrafish IRF3 (His-tagged) (zebrafish); test: MST; Monolith NT.115; homotypic titration (SVCV-P with SVCV-P, IRF3 with IRF3), labeled protein with unlabeled ligand at 16 concentrations, room temperature; which label was used is not told
[2] = target: mCherry-tagged zebrafish TBK1 protein (zebrafish); test: MST; Monolith NT.115; mCherry-tagged TBK1 as the fluorescent protein, unlabeled SVCV-P or IRF3 at 16 concentrations, protein storage buffer, room temperature 10 min, 40% LED, medium MST power
[3] = target: the molecule itself; test: MST; Monolith NT.115; homotypic titration (SVCV-P with SVCV-P, IRF3 with IRF3), labeled protein with unlabeled ligand at 16 concentrations, room temperature; which label was used is not told
[4] = target: T1, mCherry-tagged zebrafish TBK1 protein; test: MST; Monolith NT.115; mCherry-tagged TBK1 as the fluorescent protein, unlabeled SVCV-P or IRF3 at 16 concentrations, protein storage buffer, room temperature 10 min, 40% LED, medium MST power; details: both partners purified

Molecule | Kd [1] [µM] | Kd [2] [µM] | Kd [3] [µM] | Kd [4]
purified recombinant zebrafish IRF3 (His-tagged) (natural protein) | 70 | 81.7 |  | 
purified recombinant SVCV-P (His-tagged) (natural protein, phosphoprotein (P) of spring viremia of carp virus; The MST methods say only 'purified SVCV-P'; the His-only construct is surmised (EGFP-GST, EGFP-His and baculovirus EGFP-His forms were also made); also called pET28a-SVCV-P-His; source: E. coli BL21 (DE3), purified (Ni-NTA)) MSLHSKLSESLKAYADLDKTVKEIEEQVSSMEEPVPKTVKYVTFEENLSEEEWESDSGDDDEDSIDDSLIPDYLRESSSITVDEDEEDQKEDMEEHLPTVSWEEEPTGIDIGFGPGIVMPSVSNHEGGTYVRYNGLGGVDPNCKDLISKMMRSLIGQIGNKYGYDIDLFDYQGDFLEVFLPHKPSKEDVRPDIRIGKKNEEGTSKQVSKPRGKEKIVLKTGDECGRFPMNKEAKKREPEGLWEVMKVLSVQFDPWKEDEPPLSLTIRDLFISESEFRLHCNHSQTEREMALVGIKLRRLYNKLYQKYRL |  |  | 30.4 | 8.34 µM and 2.98 µM
